T1: TNFR1 (Homo sapiens, UniProt P19438)
T1 chain: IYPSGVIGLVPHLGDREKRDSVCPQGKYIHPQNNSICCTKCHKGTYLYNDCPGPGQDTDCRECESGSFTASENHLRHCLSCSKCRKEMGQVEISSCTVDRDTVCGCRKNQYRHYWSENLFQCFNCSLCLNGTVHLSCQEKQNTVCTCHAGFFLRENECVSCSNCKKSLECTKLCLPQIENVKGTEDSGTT

B1: R65A (designed binder)
chain: SMEEEVEKAAKEYEKKKKEAIEKHLEKLKAKDKEAAERFLKELEEAAKEYAKDEAKTMSEEEAKARAKKYKEKVLLSELSEEEQKEIKEAEEKLVRTILKYVEEAAK
B2: E26N (designed binder)
chain: SMEEEVEKAAKEYEKKKKEAIEKHLNKLKAKDKEAAERFLKELEEAAKEYAKDEAKTMSEEEAKRRAKKYKEKVLLSELSEEEQKEIKEAEEKLVRTILKYVEEAAK
B3: K56T (designed binder)
chain: SMEEEVEKAAKEYEKKKKEAIEKHLEKLKAKDKEAAERFLKELEEAAKEYAKDEATTMSEEEAKRRAKKYKEKVLLSELSEEEQKEIKEAEEKLVRTILKYVEEAAK
B4: K17M (designed binder)
chain: SMEEEVEKAAKEYEKKMKEAIEKHLEKLKAKDKEAAERFLKELEEAAKEYAKDEAKTMSEEEAKRRAKKYKEKVLLSELSEEEQKEIKEAEEKLVRTILKYVEEAAK
B5: Y50V (designed binder)
chain: SMEEEVEKAAKEYEKKKKEAIEKHLEKLKAKDKEAAERFLKELEEAAKEVAKDEAKTMSEEEAKRRAKKYKEKVLLSELSEEEQKEIKEAEEKLVRTILKYVEEAAK
B6: K29E (designed binder)
chain: SMEEEVEKAAKEYEKKKKEAIEKHLEKLEAKDKEAAERFLKELEEAAKEYAKDEAKTMSEEEAKRRAKKYKEKVLLSELSEEEQKEIKEAEEKLVRTILKYVEEAAK
B7: V74R (designed binder)
chain: SMEEEVEKAAKEYEKKKKEAIEKHLEKLKAKDKEAAERFLKELEEAAKEYAKDEAKTMSEEEAKRRAKKYKEKRLLSELSEEEQKEIKEAEEKLVRTILKYVEEAAK
B8: K68N (designed binder)
chain: SMEEEVEKAAKEYEKKKKEAIEKHLEKLKAKDKEAAERFLKELEEAAKEYAKDEAKTMSEEEAKRRANKYKEKVLLSELSEEEQKEIKEAEEKLVRTILKYVEEAAK
B9: K68L (designed binder)
chain: SMEEEVEKAAKEYEKKKKEAIEKHLEKLKAKDKEAAERFLKELEEAAKEYAKDEAKTMSEEEAKRRALKYKEKVLLSELSEEEQKEIKEAEEKLVRTILKYVEEAAK
B10: Y13M (designed binder)
chain: SMEEEVEKAAKEMEKKKKEAIEKHLEKLKAKDKEAAERFLKELEEAAKEYAKDEAKTMSEEEAKRRAKKYKEKVLLSELSEEEQKEIKEAEEKLVRTILKYVEEAAK
B11: E78N (designed binder)
chain: SMEEEVEKAAKEYEKKKKEAIEKHLEKLKAKDKEAAERFLKELEEAAKEYAKDEAKTMSEEEAKRRAKKYKEKVLLSNLSEEEQKEIKEAEEKLVRTILKYVEEAAK
B12: E4G (designed binder)
chain: SMEGEVEKAAKEYEKKKKEAIEKHLEKLKAKDKEAAERFLKELEEAAKEYAKDEAKTMSEEEAKRRAKKYKEKVLLSELSEEEQKEIKEAEEKLVRTILKYVEEAAK
B13: E19K (designed binder)
chain: SMEEEVEKAAKEYEKKKKKAIEKHLEKLKAKDKEAAERFLKELEEAAKEYAKDEAKTMSEEEAKRRAKKYKEKVLLSELSEEEQKEIKEAEEKLVRTILKYVEEAAK
B14: T57R (designed binder)
chain: SMEEEVEKAAKEYEKKKKEAIEKHLEKLKAKDKEAAERFLKELEEAAKEYAKDEAKRMSEEEAKRRAKKYKEKVLLSELSEEEQKEIKEAEEKLVRTILKYVEEAAK
B15: A106D (designed binder)
chain: SMEEEVEKAAKEYEKKKKEAIEKHLEKLKAKDKEAAERFLKELEEAAKEYAKDEAKTMSEEEAKRRAKKYKEKVLLSELSEEEQKEIKEAEEKLVRTILKYVEEADK
B16: K73I (designed binder)
chain: SMEEEVEKAAKEYEKKKKEAIEKHLEKLKAKDKEAAERFLKELEEAAKEYAKDEAKTMSEEEAKRRAKKYKEIVLLSELSEEEQKEIKEAEEKLVRTILKYVEEAAK
B17: S77I (designed binder)
chain: SMEEEVEKAAKEYEKKKKEAIEKHLEKLKAKDKEAAERFLKELEEAAKEYAKDEAKTMSEEEAKRRAKKYKEKVLLIELSEEEQKEIKEAEEKLVRTILKYVEEAAK
B18: A63Q (designed binder)
chain: SMEEEVEKAAKEYEKKKKEAIEKHLEKLKAKDKEAAERFLKELEEAAKEYAKDEAKTMSEEEQKRRAKKYKEKVLLSELSEEEQKEIKEAEEKLVRTILKYVEEAAK
B19: A51M (designed binder)
chain: SMEEEVEKAAKEYEKKKKEAIEKHLEKLKAKDKEAAERFLKELEEAAKEYMKDEAKTMSEEEAKRRAKKYKEKVLLSELSEEEQKEIKEAEEKLVRTILKYVEEAAK
B20: E4N (designed binder)
chain: SMENEVEKAAKEYEKKKKEAIEKHLEKLKAKDKEAAERFLKELEEAAKEYAKDEAKTMSEEEAKRRAKKYKEKVLLSELSEEEQKEIKEAEEKLVRTILKYVEEAAK
B21: K69G (designed binder)
chain: SMEEEVEKAAKEYEKKKKEAIEKHLEKLKAKDKEAAERFLKELEEAAKEYAKDEAKTMSEEEAKRRAKGYKEKVLLSELSEEEQKEIKEAEEKLVRTILKYVEEAAK
B22: E19P (designed binder)
chain: SMEEEVEKAAKEYEKKKKPAIEKHLEKLKAKDKEAAERFLKELEEAAKEYAKDEAKTMSEEEAKRRAKKYKEKVLLSELSEEEQKEIKEAEEKLVRTILKYVEEAAK
B23: A55F (designed binder)
chain: SMEEEVEKAAKEYEKKKKEAIEKHLEKLKAKDKEAAERFLKELEEAAKEYAKDEFKTMSEEEAKRRAKKYKEKVLLSELSEEEQKEIKEAEEKLVRTILKYVEEAAK
B24: A105V (designed binder)
chain: SMEEEVEKAAKEYEKKKKEAIEKHLEKLKAKDKEAAERFLKELEEAAKEYAKDEAKTMSEEEAKRRAKKYKEKVLLSELSEEEQKEIKEAEEKLVRTILKYVEEVAK
B25: E19N (designed binder)
chain: SMEEEVEKAAKEYEKKKKNAIEKHLEKLKAKDKEAAERFLKELEEAAKEYAKDEAKTMSEEEAKRRAKKYKEKVLLSELSEEEQKEIKEAEEKLVRTILKYVEEAAK
B26: A30D (designed binder)
chain: SMEEEVEKAAKEYEKKKKEAIEKHLEKLKDKDKEAAERFLKELEEAAKEYAKDEAKTMSEEEAKRRAKKYKEKVLLSELSEEEQKEIKEAEEKLVRTILKYVEEAAK
B27: K52M (designed binder)
chain: SMEEEVEKAAKEYEKKKKEAIEKHLEKLKAKDKEAAERFLKELEEAAKEYAMDEAKTMSEEEAKRRAKKYKEKVLLSELSEEEQKEIKEAEEKLVRTILKYVEEAAK
B28: E49R (designed binder)
chain: SMEEEVEKAAKEYEKKKKEAIEKHLEKLKAKDKEAAERFLKELEEAAKRYAKDEAKTMSEEEAKRRAKKYKEKVLLSELSEEEQKEIKEAEEKLVRTILKYVEEAAK
B29: E34W (designed binder)
chain: SMEEEVEKAAKEYEKKKKEAIEKHLEKLKAKDKWAAERFLKELEEAAKEYAKDEAKTMSEEEAKRRAKKYKEKVLLSELSEEEQKEIKEAEEKLVRTILKYVEEAAK
B30: I21Y (designed binder)
chain: SMEEEVEKAAKEYEKKKKEAYEKHLEKLKAKDKEAAERFLKELEEAAKEYAKDEAKTMSEEEAKRRAKKYKEKVLLSELSEEEQKEIKEAEEKLVRTILKYVEEAAK
B31: E54K (designed binder)
chain: SMEEEVEKAAKEYEKKKKEAIEKHLEKLKAKDKEAAERFLKELEEAAKEYAKDKAKTMSEEEAKRRAKKYKEKVLLSELSEEEQKEIKEAEEKLVRTILKYVEEAAK
B32: I98P (designed binder)
chain: SMEEEVEKAAKEYEKKKKEAIEKHLEKLKAKDKEAAERFLKELEEAAKEYAKDEAKTMSEEEAKRRAKKYKEKVLLSELSEEEQKEIKEAEEKLVRTPLKYVEEAAK
B33: K107D (designed binder)
chain: SMEEEVEKAAKEYEKKKKEAIEKHLEKLKAKDKEAAERFLKELEEAAKEYAKDEAKTMSEEEAKRRAKKYKEKVLLSELSEEEQKEIKEAEEKLVRTILKYVEEAAD

For the assay, the target named is T1, TNFR1. The experiment in a line: yeast display SC50.
For B1, the “apparent Kd (screen)” value stood at 1.27 nM.
For B2 the value was 0.593 nM; for B3, 3 nM; for B4, 0.79 nM.
For B5, the “apparent Kd (screen)” value was determined as 0.0802 nM.
For B6 the value was 0.869 nM; for B7, 5.31 nM; for B8, 0.653 nM.
Then B9, with 2.73 nM; and B10, with 0.593 nM.
For B11 the value was 2.73 nM; for B12, 0.718 nM; for B13, 0.49 nM.
B14: the “apparent Kd (screen)” value was found to be 0.49 nM.
For B15 the value was 0.79 nM; for B16, 2.73 nM.
On to B17, for which the “apparent Kd (screen)” value was found to be 11.4 nM.
Then B18, with 1.4 nM; and B19, with 0.49 nM.
For B20 the value was 0.539 nM; for B21, 2.25 nM; for B22, 22.2 nM.
Then B23, with 11.4 nM; and B24, with 1.16 nM; and B25, with 0.446 nM.
As to B26, the “apparent Kd (screen)” value stood at 1.4 nM.
Then B27, with 0.446 nM; and B28, with 0.956 nM; and B29, with 0.446 nM.
For B30, the “apparent Kd (screen)” value turned out to be 0.446 nM.
For B31 the value was 8.56 nM; for B32, 1.86 nM; for B33, 0.0498 nM.

The values are drawn from PMC12416549 (2024).
